B1: Guanylate-binding protein 1 (Homo sapiens), P32455 (parent)
chain: MASEIHMTGPMCLIENTNGRLMANPEALKILSAITQPMVVVAIVGLYRTGKSYLMNKLAGKKKGFSLGSTVQSHTKGIWMWCVPHPKKPGHILVLLDTEGLGDVEKGDNQNDSWIFALAVLLSSTFVYNSIGTINQQAMDQLYYVTELTHRIRSKSSPDENENEVEDSADFVSFFPDFVWTLRDFSLDLEADGQPLTPDEYLTYSLKLKKGTSQKDETFNLPRLCIRKFFPKKKCFVFDRPVHRRKLAQLEKLQDEELDPEFVQQVADFCSYIFSNSKTKTLSGGIQVNGPRLESLVLTYVNAISSGDLPCMENAVLALAQIENSAAVQKAIAHYEQQMGQKVQLPTETLQELLDLHRDSEREAIEVFIRSSFKDVDHLFQKELAAQLEKKRDDFCKQNQEASSDRCSALLQVIFSPLEEEVKAGIYSKPGGYRLFVQKLQDLKKKYYEEPRKGIQAEEILQTYLKSKESMTDAILQTDQTLTEKEKEIEVERVKAESAQASAKMLQEMQRKNEQMMEQKERSYQEHLKQLTEKMENDRVQLLKEQERTLALKLQEQEQLLKEGFQKESRIMKNEIQDLQTKMRRRKACTIS
partner: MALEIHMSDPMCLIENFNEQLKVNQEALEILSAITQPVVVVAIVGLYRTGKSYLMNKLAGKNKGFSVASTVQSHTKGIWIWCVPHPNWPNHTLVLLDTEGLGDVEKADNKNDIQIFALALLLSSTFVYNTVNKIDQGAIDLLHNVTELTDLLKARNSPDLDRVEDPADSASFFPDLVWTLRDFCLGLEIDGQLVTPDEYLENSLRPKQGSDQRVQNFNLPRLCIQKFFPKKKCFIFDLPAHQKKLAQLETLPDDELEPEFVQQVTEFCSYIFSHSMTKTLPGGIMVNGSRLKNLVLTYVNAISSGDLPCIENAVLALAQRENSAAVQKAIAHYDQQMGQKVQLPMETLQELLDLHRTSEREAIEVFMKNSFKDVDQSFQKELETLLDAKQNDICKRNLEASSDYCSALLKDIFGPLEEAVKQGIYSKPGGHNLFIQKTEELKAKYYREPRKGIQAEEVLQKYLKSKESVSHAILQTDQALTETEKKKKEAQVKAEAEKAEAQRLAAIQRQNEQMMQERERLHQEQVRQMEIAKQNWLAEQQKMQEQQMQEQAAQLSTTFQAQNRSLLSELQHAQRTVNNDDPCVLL
B2: Guanylate-binding protein 1 (Homo sapiens), P32455 (parent)
chain: B1 chain
partner: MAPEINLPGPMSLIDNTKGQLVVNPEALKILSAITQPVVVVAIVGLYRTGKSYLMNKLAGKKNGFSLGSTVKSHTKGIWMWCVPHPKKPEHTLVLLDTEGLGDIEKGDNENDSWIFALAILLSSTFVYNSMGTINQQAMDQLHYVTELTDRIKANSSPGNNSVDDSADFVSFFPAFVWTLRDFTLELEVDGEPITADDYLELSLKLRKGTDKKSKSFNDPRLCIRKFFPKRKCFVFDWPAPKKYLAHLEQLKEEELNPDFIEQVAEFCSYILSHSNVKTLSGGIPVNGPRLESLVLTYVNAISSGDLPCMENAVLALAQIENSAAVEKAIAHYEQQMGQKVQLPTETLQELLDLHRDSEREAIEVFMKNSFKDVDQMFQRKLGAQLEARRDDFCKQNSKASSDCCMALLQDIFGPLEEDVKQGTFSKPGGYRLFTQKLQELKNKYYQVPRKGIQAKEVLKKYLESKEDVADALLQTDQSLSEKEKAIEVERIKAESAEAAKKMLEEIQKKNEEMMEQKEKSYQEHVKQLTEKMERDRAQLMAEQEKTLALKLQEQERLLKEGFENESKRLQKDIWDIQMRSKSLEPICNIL

Variants of: B1
Details: with gbp5_human GBP5, Q96PP8

| effect of a mutation on the interaction | Variant |
| --- | --- |
| disrupting interaction strength | K51A |

Variants of: B2
Details: with gbp2_human GBP2, P32456

| effect of a mutation on the interaction | Variant |
| --- | --- |
| disrupting interaction strength | K51A |

— IntAct's records for PubMed 21151871
